Target: T1, purified human complement Factor H (human, UniProt P08603 19-1231)
T1 construct: also called fH
Assay: steady state tryptophan fluorescence titration of Factor H with BSP

T1 sequence (P08603 19-1231 limits assumed): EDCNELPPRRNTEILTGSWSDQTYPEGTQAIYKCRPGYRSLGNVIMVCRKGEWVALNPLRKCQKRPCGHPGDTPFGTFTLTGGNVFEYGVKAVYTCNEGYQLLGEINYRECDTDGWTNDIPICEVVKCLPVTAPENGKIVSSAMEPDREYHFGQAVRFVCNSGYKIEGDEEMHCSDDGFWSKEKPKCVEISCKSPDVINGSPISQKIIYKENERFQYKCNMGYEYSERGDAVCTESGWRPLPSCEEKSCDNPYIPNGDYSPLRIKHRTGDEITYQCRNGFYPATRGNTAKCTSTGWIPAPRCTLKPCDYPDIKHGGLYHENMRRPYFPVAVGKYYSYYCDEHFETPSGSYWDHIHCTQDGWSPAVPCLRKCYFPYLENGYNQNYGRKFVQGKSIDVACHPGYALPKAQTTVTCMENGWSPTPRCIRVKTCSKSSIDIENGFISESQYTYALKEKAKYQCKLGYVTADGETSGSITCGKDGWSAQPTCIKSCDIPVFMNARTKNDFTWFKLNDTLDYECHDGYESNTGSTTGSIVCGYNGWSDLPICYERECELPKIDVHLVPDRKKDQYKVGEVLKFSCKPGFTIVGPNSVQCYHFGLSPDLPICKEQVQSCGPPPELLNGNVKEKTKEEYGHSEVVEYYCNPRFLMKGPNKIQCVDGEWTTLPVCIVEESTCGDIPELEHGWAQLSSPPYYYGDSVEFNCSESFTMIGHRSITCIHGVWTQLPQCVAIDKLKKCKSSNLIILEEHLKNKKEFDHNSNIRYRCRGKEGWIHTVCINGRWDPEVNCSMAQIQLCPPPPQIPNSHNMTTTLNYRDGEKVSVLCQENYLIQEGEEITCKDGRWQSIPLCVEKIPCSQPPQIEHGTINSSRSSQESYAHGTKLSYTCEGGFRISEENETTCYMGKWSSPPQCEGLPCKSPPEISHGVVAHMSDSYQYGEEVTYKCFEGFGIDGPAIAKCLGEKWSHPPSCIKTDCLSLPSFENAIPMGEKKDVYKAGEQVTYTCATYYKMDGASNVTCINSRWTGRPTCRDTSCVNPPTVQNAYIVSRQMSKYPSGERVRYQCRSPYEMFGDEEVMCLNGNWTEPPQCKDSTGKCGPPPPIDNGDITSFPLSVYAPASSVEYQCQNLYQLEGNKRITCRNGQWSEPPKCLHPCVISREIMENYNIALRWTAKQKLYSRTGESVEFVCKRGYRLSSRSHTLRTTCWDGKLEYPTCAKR

Kd: ≤ 1 nM
stoichiometry (BSP:Factor H): 1 molar ratio
B1: human bone sialoprotein (BSP) (ligand)
chain: FSMKNLHRRVKIEDSEENGVFKYRPRYYLYKHAYFYPHLKRFPVQGSSDSSEENGDDSSEEEEEEEETSNEGENNEESNEDEDSEAENTTLSATTLGYGEDATPGTGYTGLAAIQLPKKAGDITNKATKEKESDEEEEEEEEGNENEESEAEVDENEQGINGTSTNSTEAENGNGSSGGDNGEEGEEESVTGANAEGTTETGGQGKGTSKTTTSPNGGFEPTTPPQVYRTTSPPFGKTTTVEYEGEYEYTGVNEYDNGYEIYESENGEPRGDNYRAYEDEYSYFKGQGYDGYDGQNYYHHQ
modifications: glycosylated, phosphorylated and tyrosine-sulfated glycoprotein (sites not given)
notes: Natural BSP of human serum is entered under the same molecule; also called rBSP; recombinant BSP
